Data from patent US20220025071A1.
“And” between values parts separate entries of the source, which are not always exact repeats. Identical values can stand only once.

How the values were obtained:
[1] = molecular target: SARS-CoV-2 spike protein, South African Δ3 B.1.351 variant (pseudovirus RVP-724) (SARS-CoV-2) (UniProt P0DTC2); assay: cell-based or functional assay
[2] = molecular target: SARS-CoV-2 spike protein, N439K variant (pseudovirus RVP-703) (SARS-CoV-2) (UniProt P0DTC2); assay: cell-based or functional assay

REGN10987 (Imdevimab, biosimilar version) (antibody)
EC50 (pM) Neutralization, South Africa B.1.351 [1]: 2.48 pM and 2.37 pM
EC50 (pM) Neutralization, N439K [2]: 2260 pM and 2220 pM
fold less potent than REGN10933 in pseudovirus neutralization [2]: 1000 fold
